Substitutions are numbered along the chain they refer to.

The values that follow come from US20030068675, “Position dependent recognition of GNN nucleotide triplets by zinc fingers” (published 2003).

Assay in all cases: EMSA
What all share (conditions): tags: MBP fusion

The target of one series is T1, ZFP SBS#1011 (synthetic).
T1 chain: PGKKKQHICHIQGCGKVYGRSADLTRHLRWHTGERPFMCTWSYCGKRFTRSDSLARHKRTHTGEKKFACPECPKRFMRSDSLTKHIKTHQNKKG
The method, boiled down: (§1)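 Purified ZFP was titrated against labeled double-stranded target (1 nM or lower, at least 10-fold below expected Kd) carrying the natural binding site with flanks. Binding buffer was 10 mM Tris pH 7.5, 100 mM KCl, 1 mM MgCl2, 0.1 mM ZnCl2, 5 mM DTT, 10% glycerol, 0.02% BSA, with equilibration for at least 45 min. Bound and free target were separated on a 10% polyacrylamide gel.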

The target of the next series is ZFP SBS#1019 (synthetic). A digest of the protocol: as §1
ZFP SBS#1019 (synthetic), sequence (chain, as listed by the source): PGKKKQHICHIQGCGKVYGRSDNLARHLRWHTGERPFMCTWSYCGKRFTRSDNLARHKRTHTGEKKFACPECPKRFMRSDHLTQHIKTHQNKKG
Another series concerns the target ZFP SBS#999 (synthetic). The method, boiled down:
as §1

For a further series, the target named is ZFP SBS#997 (synthetic). A digest of the protocol:
as §1

The target of the next series is ZFP SBS#991 (synthetic). The method, boiled down:
as §1

For the next series, the target named is T2, ZFP SBS#990 (synthetic, UniProt P08047).
T2 chain: T1 chain with R20D, S21R, A22S, D23H, S81N, K84Q
A digest of the protocol: as §1

A further series has as its target T3, ZFP SBS#981 (synthetic, UniProt P08047).
T3 chain: T1 chain with A22D, S53E, A55Q, S81N, T83R, K84E
The method, boiled down: as §1

For another series, the target named is ZFP SBS#1014 (synthetic). The method, boiled down:
as §1

In a further series the target is ZFP SBS#1012 (synthetic). A digest of the protocol:
as §1

The next series addresses T4, ZFP SBS#1022 (synthetic).
T4 chain: T1 chain with A22D, D23A, T25A, S53N, S81N, T83A, K84R
The method, boiled down: as §1

Another series deals with ZFP SBS#1025 (synthetic). A digest of the protocol:
as §1

The target in another series is ZFP SBS#1015 (synthetic). The method, boiled down:
as §1

A further series addresses T5, ZFP SBS#1002 (synthetic).
T5 chain: T1 chain with A22D, D23N, T25V, S53N, S81E, L82R, T83K, K84R
The method, boiled down: as §1

For the next series, the target named is T6, ZFP SBS#996 (synthetic).
T6 chain: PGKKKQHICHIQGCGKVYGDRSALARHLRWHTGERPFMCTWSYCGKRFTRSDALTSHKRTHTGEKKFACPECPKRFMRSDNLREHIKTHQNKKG
The method, boiled down:
as §1

In a further series the target is T7, ZFP SBS#1000 (synthetic).
T7 chain: T6 chain with S56R
A digest of the protocol:
as §1

In another series the target is T8, ZFP SBS#1016 (synthetic).
T8 chain: T6 chain with A53S, S56K
A digest of the protocol:
as §1

Another series deals with ZFP SBS#1018 (synthetic). A digest of the protocol: as §1
ZFP SBS#1018 (synthetic), sequence (chain, as listed by the source): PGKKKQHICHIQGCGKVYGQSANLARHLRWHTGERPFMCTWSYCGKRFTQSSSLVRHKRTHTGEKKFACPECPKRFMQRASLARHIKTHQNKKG
In the next series the target is T9, ZFP SBS#1008 (synthetic).
T9 chain: T1 chain with A22D, D23N, T25S, A55T, R56Q, S79L, D80H, S81N, T83A, K84R
A digest of the protocol: as §1

The next series concerns the target T10, ZFP SBS#1009 (synthetic).
T10 chain: T1 chain with A22D, D23N, T25S, A55T, R56Q, S81N, T83S, K84R
The method, boiled down:
as §1

A further series addresses T11, ZFP SBS#989 (synthetic).
T11 chain: T1 chain with A22D, D23H, T25A, S53N, R78M, D80H, S81H, T83S, K84R
A digest of the protocol:
as §1

A further series has as its target T12, ZFP SBS#985 (synthetic).
T12 chain: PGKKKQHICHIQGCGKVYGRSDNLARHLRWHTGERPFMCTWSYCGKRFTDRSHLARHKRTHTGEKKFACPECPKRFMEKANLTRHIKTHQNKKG
The method, boiled down: as §1

Another series deals with T13, ZFP SBS#984 (synthetic).
T13 chain: T12 chain with E78D, K79R, A80S
A digest of the protocol: as §1

The next series concerns the target ZFP SBS#1001 (synthetic). A digest of the protocol: as §1
A further series addresses ZFP SBS#1006 (synthetic). A digest of the protocol: as §1
Another series has as its target T14, ZFP SBS#1024 (synthetic, UniProt P08047).
T14 chain: T1 chain with R20Q, D23N, T25A, S53N, S81H, T83S, K84R
A digest of the protocol:
as §1

Another series has as its target ZFP SBS#995 (synthetic, UniProt P08047). A digest of the protocol:
as §1

For the next series, the target named is T15, ZFP SBS#1017 (synthetic).
T15 chain: T1 chain with R20E, S21K, D23N, R50T, D52G, S53N, A55V, S81A, T83R, K84E
A digest of the protocol: as §1

The next series deals with ZFP SBS#438 (synthetic). The method, boiled down: as §1
For another series, the target named is ZFP SBS#368 (synthetic). The method, boiled down:
as §1

For another series, the target named is ZFP SBS#994 (synthetic). The method, boiled down:
as §1

The next series concerns the target T16, ZFP SBS#939 (synthetic).
T16 chain: T1 chain with A22D, D23H, R26T, R50D, S51R, D52S, S53H, S81H, T83S
A digest of the protocol: as §1

The target in the next series is ZFP SBS#940 (synthetic). A digest of the protocol:
as §1

Another series has as its target ZFP SBS#1013 (synthetic). A digest of the protocol:
as §1

Another series addresses ZFP SBS#1010 (synthetic). The method, boiled down:
as §1

For the next series, the target named is ZFP SBS#1007 (synthetic). A digest of the protocol: as §1
ZFP SBS#1007 (synthetic), sequence (chain, as listed by the source): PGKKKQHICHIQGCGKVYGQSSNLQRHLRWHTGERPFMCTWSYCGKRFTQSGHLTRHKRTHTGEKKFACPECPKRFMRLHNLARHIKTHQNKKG
The target in another series is T17, ZFP SBS#983 (synthetic).
T17 chain: T12 chain with N23H, A25T, R26K, E78R, K79S, A80D, N81E, T83R, R84E
The method, boiled down:
as §1

The target of a further series is T18, ZFP SBS#982 (synthetic).
T18 chain: T12 chain with N23H, A25T, R26T, E78R, K79S, A80D, N81E, T83R, R84E
A digest of the protocol: as §1

ZFP SBS#995, sequence (P08047 other isoform, or with tags, fused parts or gaps): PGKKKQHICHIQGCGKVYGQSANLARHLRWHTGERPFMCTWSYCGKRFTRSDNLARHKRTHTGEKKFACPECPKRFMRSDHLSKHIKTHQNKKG
ZFP SBS#997 (synthetic), sequence (chain, as listed by the source): as the sequence (P08047 other isoform, or with tags, fused parts or gaps) above, with A22S, N23D, A25T, R78Q, D80G, S83N, K84Q counted along it
ZFP SBS#368 (synthetic), sequence (chain, as listed by the source): as the sequence (P08047 other isoform, or with tags, fused parts or gaps) above, with Q20R, A22D, N23E, A25T, N53H, A55T, H81N, S83T, K84R counted along it
ZFP SBS#940 (synthetic), sequence (chain, as listed by the source): as the sequence (P08047 other isoform, or with tags, fused parts or gaps) above, with Q20R, A22D, N23H, A25T, R26K, R50D, S51R, D52S, N53H counted along it
ZFP SBS#1010 (synthetic), sequence (chain, as listed by the source): as the sequence (P08047 other isoform, or with tags, fused parts or gaps) above, with A22S, A25Q, R50Q, D52G, N53H, A55T, H81N, S83A, K84R counted along it
ZFP SBS#1025 (synthetic), sequence (chain, as listed by the source): as the sequence (P08047 other isoform, or with tags, fused parts or gaps) above, with A22S, N23A, A25T, R50Q, D52S, N53S, A55V, H81T, S83T, K84Q counted along it
ZFP SBS#999 (synthetic), sequence (chain, as listed by the source): as the sequence (P08047 other isoform, or with tags, fused parts or gaps) above, with A22S, N23D, A25T, R78Q, D80G, H81K, S83T, K84Q counted along it
ZFP SBS#1001 (synthetic), sequence (chain, as listed by the source): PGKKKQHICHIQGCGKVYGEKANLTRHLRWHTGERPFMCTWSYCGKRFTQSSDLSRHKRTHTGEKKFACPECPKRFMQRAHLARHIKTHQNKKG
ZFP SBS#1012 (synthetic), sequence (chain, as listed by the source): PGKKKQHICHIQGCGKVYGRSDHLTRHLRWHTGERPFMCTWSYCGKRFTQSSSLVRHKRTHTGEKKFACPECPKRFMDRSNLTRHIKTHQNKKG
ZFP SBS#991 (synthetic), sequence (chain, as listed by the source): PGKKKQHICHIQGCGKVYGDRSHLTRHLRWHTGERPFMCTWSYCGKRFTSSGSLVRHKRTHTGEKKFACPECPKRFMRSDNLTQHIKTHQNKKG
ZFP SBS#1015 (synthetic), sequence (chain, as listed by the source): as the sequence (P08047 other isoform, or with tags, fused parts or gaps) above, with Q20R, A22D, A25V, H81T, S83K counted along it
ZFP SBS#1006 (synthetic), sequence (chain, as listed by the source): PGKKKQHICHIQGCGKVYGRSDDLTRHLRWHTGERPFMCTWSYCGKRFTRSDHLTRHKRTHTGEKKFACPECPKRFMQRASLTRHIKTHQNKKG

B1: TTGGTGGCG (dsDNA)
DNA 1: TTGGTGGCG
DNA 2: CGCCACCAA
Turning to B1, the affinity in the series with ZFP SBS#1011, expressed as Kd, was 0.03 nM.

B2: AGGGAGGAG (dsDNA)
DNA 1: AGGGAGGAG
DNA 2: CTCCTCCCT
In the series with ZFP SBS#1019, B2 returned a Kd of 0.022 nM.

B3: AGAGAGGCT (dsDNA)
DNA 1: AGAGAGGCT
DNA 2: AGCCTCTCT
Consider B3, for which the Kd with ZFP SBS#999 worked out at 0.6 nM; with ZFP SBS#997, 1.65 nM.

B4: AAGGTGGGC (dsDNA)
DNA 1: AAGGTGGGC
DNA 2: GCCCACCTT
As to B4, the Kd worked out at 0.06 nM with ZFP SBS#991 and 5.35 nM with ZFP SBS#990.

B5: CAGGCGGCG (dsDNA)
DNA 1: CAGGCGGCG
DNA 2: CGCCGCCTG
As to B5, the Kd with ZFP SBS#981 is 0.375 nM.

B6: GACGTAGGG (dsDNA)
DNA 1: GACGTAGGG
DNA 2: CCCTACGTC
As to B6, the Kd was found to be 0.01 nM with ZFP SBS#1014 and 0.032 nM with ZFP SBS#1012.

B7: GAGGAGGTG (dsDNA)
DNA 1: GAGGAGGTG
DNA 2: CACCTCCTC
On to B7, for which the dissociation constant Kd with ZFP SBS#1022 came to 0.01 nM; with ZFP SBS#1025 it was 0.115 nM.

B8: GCGGAGGAG (dsDNA)
DNA 1: GCGGAGGAG
DNA 2: CTCCTCCGC
Take B8: the Kd with ZFP SBS#1015 worked out at 0.008 nM; in the series with ZFP SBS#1002 it was 0.028 nM.

B9: CAGTTGGTC (dsDNA)
DNA 1: CAGTTGGTC
DNA 2: GACCAACTG
Regarding B9, the figures for the Kd with ZFP SBS#996, with ZFP SBS#1000 and with ZFP SBS#1016 were 9.6 nM, 11.2 nM and 0.09 nM, respectively.

B10: GTAGTAGAA (dsDNA)
DNA 1: GTAGTAGAA
DNA 2: TTCTACTAC
In the series with ZFP SBS#1018, B10 registered a Kd of 7.2 nM.

B11: GAGATGGAG (dsDNA)
DNA 1: GAGATGGAG
DNA 2: CTCCATCTC
Consider B11, for which the Kd was 0.4 nM with ZFP SBS#1008 and 1.9 nM in the series with ZFP SBS#1009.

B12: GGTGAGGGG (dsDNA)
DNA 1: GGTGAGGGG
DNA 2: CCCCTCACC
As to B12, binding with ZFP SBS#989 was put at a Kd of 1.9 nM.

B13: GACGGCGAG (dsDNA)
DNA 1: GACGGCGAG
DNA 2: CTCGCCGTC
Regarding B13, the dissociation constant (Kd) with ZFP SBS#985 amounted to 0.965 nM; in the series with ZFP SBS#984 it was 1.6 nM.

B14: GGAGCTGAC (dsDNA)
DNA 1: GGAGCTGAC
DNA 2: GTCAGCTCC
B14: binding with ZFP SBS#1001 was put at a Kd of 1.8 nM.

B15: GTAGGGGCG (dsDNA)
DNA 1: GTAGGGGCG
DNA 2: CGCCCCTAC
Turning to B15, the Kd with ZFP SBS#1006 came to 0.898 nM.

B16: GGGGAGGAA (dsDNA)
DNA 1: GGGGAGGAA
DNA 2: TTCCTCCCC
Consider B16, for which the Kd in the series with ZFP SBS#1024 and with ZFP SBS#995 was 0.08 nM each time.

B17: CTGGATGAC (dsDNA)
DNA 1: CTGGATGAC
DNA 2: GTCATCCAG
B17 had a Kd with ZFP SBS#1017 of 0.233 nM.

B18: GAGGGGGCG (dsDNA)
DNA 1: GAGGGGGCG
DNA 2: CGCCCCCTC
Turning to B18, the Kd in the series with ZFP SBS#438 turned out to be 62.5 nM; in the series with ZFP SBS#368, 3.5 nM.

B19: GGGGGCTGG (dsDNA)
DNA 1: GGGGGCTGG
DNA 2: CCAGCCCCC
Consider B19, for which the dissociation constant (Kd) turned out to be 0.03 nM with ZFP SBS#994, 0.352 nM with ZFP SBS#939 and 1.5 nM with ZFP SBS#940.

B20: GAGAGAGAT (dsDNA)
DNA 1: GAGAGAGAT
DNA 2: ATCTCTCTC
With B20, the dissociation constant (Kd) was determined as 0.15 nM with ZFP SBS#1013, 8.2 nM with ZFP SBS#1010 and 167 nM in the series with ZFP SBS#1007.

B21: CCGGGCTGG (dsDNA)
DNA 1: CCGGGCTGG
DNA 2: CCAGCCCGG
Turning to B21, the Kd with ZFP SBS#983 was determined as 1.39 nM; with ZFP SBS#982, 0.03 nM.

As a reminder, the Kd is the equilibrium constant for the complex coming apart. Low values mean higher affinity, high ones lower affinity.
